This series concerns the target His-ΔPACC (Neurospora crassa) (UniProt Q7RVQ8). In words: EMSA. The settings on record: EMSA: 25 mM HEPES-KOH pH 7.9, 20 mM KCl, 10% glycerol, 1 mM DTT, 0.2 mM EDTA, 0.5 mM PMSF, 12.5 mM benzamidine, 5 µg/mL antipain and pepstatin A, 2 µg ….

Chain of His-ΔPACC (Neurospora crassa) (Q7RVQ8 1-213, stated change not applied): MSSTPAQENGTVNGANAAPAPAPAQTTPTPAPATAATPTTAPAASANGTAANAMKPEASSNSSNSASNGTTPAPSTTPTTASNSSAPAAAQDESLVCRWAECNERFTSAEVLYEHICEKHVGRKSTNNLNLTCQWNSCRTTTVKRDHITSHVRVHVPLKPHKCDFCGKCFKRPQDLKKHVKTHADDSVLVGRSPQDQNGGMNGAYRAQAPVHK

As to “GACCCAACAGCCCAACTTGTGCTTGTCTTGTTCTTTTCCGGCCTCGCTAGAGGTACTATTTCTTCGCTTCTTGTCTGACTTTTTTCAATAGCCGTCTTTGGGCCAGCTTGGCCGTGAGATCGGGGCCGCATGGGAGTATTCGTTGC (double strand) [pacC probe (146 bp gsn promoter)]”, the binding entry is “binds”.

For the sequence “GACCCAACAGCCCAACTTGTGCTTGTCTTGTTCTTTTCCGGCCTCGCTAGAGGTACTATTTCTTCGCTTCTTGTCTGACTTTTTTCAATAGCCGTCTTTGGGCCAGAAATTACGTGAGATCGGGGCCGCATGGGAGTATTCGTTGC (double strand) [mpacC probe (CTTGGC to AAATTA)]”, the binding result is recorded as “binds more weakly”.

The values above are taken from publication PMC3432076.
